Positions count from the first letter of the chain named.
Assays:
[1] = molecular target: T1, wild-type heparanase produced in COS7 cells (hepwt) (Homo sapiens, UniProt Q9Y251); assay: Heparin titration in the fluorimetric heparanase activity assay, wild-type enzyme; type: biochemical
T1 construct: made in house; host or cells: COS7 cells, transient transfection with pcDNA3; partially purified on Heparin Sepharose
T1 sequence (Q9Y251 36-109 limits assumed): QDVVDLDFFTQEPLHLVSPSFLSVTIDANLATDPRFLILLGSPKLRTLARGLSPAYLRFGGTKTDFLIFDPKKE
T1 sequence (Q9Y251 158-543 limits assumed): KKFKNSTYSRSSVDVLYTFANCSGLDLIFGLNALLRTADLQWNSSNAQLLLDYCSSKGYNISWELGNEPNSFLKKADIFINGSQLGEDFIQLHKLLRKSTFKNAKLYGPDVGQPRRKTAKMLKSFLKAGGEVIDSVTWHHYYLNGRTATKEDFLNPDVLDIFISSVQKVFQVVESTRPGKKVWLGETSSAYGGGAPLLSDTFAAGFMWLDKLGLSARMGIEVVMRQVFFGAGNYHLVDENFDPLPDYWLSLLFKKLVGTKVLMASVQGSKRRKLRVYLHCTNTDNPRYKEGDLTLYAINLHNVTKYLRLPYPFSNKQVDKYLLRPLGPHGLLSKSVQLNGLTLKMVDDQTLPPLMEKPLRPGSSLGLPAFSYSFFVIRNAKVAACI
Description: (§1) FIG. 7: Ionic strength dependence (panel A), inhibition by heparin (panel B) and pH-dependence (panel C) of wild-type heparanase produced in COS7 cells (●), hepGS3 (□) and hepHyal (▴) single chain constructs produced in insect cells using the fluorimetric activity assay.
(§2) This assay is based on the degradation of FITC-HS monitored by HPLC size exclusion chromatography. 8 μl of purified heparanase was incubated with 5 μL of FITC-HS in a 50 μl of 50 mM MES pH 6, 10% glycerol (heparanase activity buffer, HAB). The reaction mixture was incubated at room temperature for a defined period and the reaction was stopped by the addition of 50 μg of heparin. The mixture was then filtered using Ultrafree-MC centrifugal filter Devices (Millipore). 20 μl were injected on a Superdex 75™ (Pharmacia Biotech) column equilibrated in buffer 50 mM Hepes pH 7.5 150 mM Na2SO4 and connected to a Merck-Hitachi HPLC system. Fluorescent heparan sulfate degradation products were detected by an L-7485 fluorescence detector. Heparanase activity was assessed by monitoring the increase in lower molecular weight heparan sulfate species compared with the intact FITC-HS and quantified by peak area integration.

[2] = molecular target: T2, hepGS3 single chain construct produced in insect cells (Homo sapiens, UniProt Q9Y251, DEL111-157/INS109GSGSG/K307R); assay: Heparin titration in the fluorimetric heparanase activity assay, hepGS3; type: biochemical
T2 construct: made in house; host or cells: Sf9 insect cells (baculovirus, Bac to Bac)
T2 sequence (Q9Y251 with tags, fused parts or gaps INS109GSGSG/DEL111-157/K307R): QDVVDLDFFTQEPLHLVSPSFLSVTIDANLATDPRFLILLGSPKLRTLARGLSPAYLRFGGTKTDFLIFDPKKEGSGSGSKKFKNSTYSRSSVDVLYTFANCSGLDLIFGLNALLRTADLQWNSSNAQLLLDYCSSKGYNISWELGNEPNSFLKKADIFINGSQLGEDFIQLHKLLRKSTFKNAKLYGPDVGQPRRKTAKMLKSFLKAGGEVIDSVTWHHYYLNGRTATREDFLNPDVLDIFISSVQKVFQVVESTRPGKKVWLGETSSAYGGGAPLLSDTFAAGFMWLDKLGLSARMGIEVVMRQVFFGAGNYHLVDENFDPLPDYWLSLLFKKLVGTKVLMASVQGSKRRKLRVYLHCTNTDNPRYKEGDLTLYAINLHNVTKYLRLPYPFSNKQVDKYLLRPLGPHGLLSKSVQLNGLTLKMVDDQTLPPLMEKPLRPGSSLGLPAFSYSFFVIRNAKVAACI
Description: as §1, §2

[3] = molecular target: T3, hepHyal single chain construct produced in insect cells (Homo sapiens, UniProt Q9Y251, DEL119-135/E137F/E138K/K139D/K307R/L140K/L142P/R141T/V136A); assay: Heparin titration in the fluorimetric heparanase activity assay, hepHyal; type: biochemical
T3 construct: made in house; host or cells: Sf9 insect cells (baculovirus, Bac to Bac)
Description: as §1, §2

[4] = molecular target: T4, hepTEV110 (human heparanase with a TEV cleavage site E109-GSGSENLYFQ-GSG-G110 inserted between E109 and G110)
T4 chain: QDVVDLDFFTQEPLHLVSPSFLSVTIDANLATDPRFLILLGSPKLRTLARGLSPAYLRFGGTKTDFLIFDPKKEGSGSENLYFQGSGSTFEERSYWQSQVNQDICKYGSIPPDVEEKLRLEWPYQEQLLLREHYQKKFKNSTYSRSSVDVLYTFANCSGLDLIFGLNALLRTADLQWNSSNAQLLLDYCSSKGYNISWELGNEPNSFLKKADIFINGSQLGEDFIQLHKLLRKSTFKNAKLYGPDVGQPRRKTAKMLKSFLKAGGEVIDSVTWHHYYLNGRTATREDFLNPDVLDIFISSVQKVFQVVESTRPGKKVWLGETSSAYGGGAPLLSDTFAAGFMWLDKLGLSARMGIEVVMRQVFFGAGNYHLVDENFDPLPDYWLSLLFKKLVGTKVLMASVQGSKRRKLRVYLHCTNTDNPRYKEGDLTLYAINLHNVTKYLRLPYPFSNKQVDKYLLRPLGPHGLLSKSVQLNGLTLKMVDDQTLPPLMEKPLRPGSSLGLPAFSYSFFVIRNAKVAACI

[5] = molecular target: T5, hepTEV110/158 (human heparanase with TEV cleavage sites between E109/G110 and Q157/K158)
T5 chain: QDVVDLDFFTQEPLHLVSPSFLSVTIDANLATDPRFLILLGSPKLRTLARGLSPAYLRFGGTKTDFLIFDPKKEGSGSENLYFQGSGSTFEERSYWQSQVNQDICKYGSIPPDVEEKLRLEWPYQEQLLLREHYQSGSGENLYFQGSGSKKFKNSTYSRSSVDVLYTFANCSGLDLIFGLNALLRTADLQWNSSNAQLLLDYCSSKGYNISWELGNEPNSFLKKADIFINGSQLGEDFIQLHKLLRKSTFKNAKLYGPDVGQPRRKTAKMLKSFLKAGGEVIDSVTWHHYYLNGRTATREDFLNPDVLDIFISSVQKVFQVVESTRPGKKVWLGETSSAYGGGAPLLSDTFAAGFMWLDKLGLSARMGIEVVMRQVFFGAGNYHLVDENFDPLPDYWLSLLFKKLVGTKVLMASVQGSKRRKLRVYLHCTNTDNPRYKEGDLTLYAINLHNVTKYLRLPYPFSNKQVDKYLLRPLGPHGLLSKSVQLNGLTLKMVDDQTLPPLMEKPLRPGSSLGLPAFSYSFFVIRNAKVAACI

[6] = Heparanase activation of TEV cleavage site constructs by digestion with TEV protease; type: biochemical; conditions: overnight at room temperature, TEV protease 0.5 μM, 50 mM Mes pH 6.0
Description: Heparanase activity of these samples was assessed using the fluorimetric method.
The constructs having TEV cleavage sites at positions 109/110 and 109/110+157/158 were expressed, purified on a heparin affinity column and digested overnight at room temperature with TEV protease (0.5 μM) in 50 mM Mes pH 6.0, 10% glycerol, 0.5 mM EDTA.
as §2

[7] = cited from earlier work

T3 sequence (Q9Y251 other isoform, or with tags, fused parts or gaps DEL119-135/V136A/E137F/E138K/K139D/L140K/R141T/L142P/K307R): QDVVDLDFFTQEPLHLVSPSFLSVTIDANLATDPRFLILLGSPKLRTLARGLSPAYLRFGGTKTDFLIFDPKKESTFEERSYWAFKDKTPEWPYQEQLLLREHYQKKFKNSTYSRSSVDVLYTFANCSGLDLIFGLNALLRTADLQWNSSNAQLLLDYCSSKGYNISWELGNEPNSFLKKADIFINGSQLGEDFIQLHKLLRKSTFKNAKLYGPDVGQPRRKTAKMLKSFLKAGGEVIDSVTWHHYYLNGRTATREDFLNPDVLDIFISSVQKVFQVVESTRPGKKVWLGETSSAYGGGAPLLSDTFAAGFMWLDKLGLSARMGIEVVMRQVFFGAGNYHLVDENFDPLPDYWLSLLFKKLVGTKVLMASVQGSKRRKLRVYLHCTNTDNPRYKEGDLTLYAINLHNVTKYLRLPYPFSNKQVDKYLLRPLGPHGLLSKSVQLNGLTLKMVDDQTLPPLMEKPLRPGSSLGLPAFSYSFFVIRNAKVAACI

Molecule: heparin
- IC50 of heparin, hepwt [1]: 0.9 µg/mL
- IC50 of heparin, hepGS3 [2]: 1.1 µg/mL
- IC50 of heparin, hepHyal [3]: 1.5 µg/mL

B1: tobacco etch virus (TEV) protease (protein)
chain: GESLFKGPRDYNPISSTICHLTNESDGHTTSLYGIGFGPFIITNKHLFRRNNGTLLVQSLHGVFKVKNTTTLQQHLIDGRDMIIIRMPKDFPPFPQKLKFREPQREERICLVTTNFQTKSMSSMVSDTSCTFPSSDGIFWKHWIQTKDGQCGSPLVSTRDGFIVGIHSASNFTNTNNYFTSVPKNFMELLTNQEAQQWVSGWRLNADSVLWGGHKVFMSKPEEPFQPVKEATQLMNELVYSQ
- proteolytic processing by TEV protease (overnight digestion, Western blot) [4]: Complete processing was observed in both cases
- proteolytic processing by TEV protease (overnight digestion, Western blot) [5]: Complete processing was observed in both cases

B2: 109/110: heparanase with TEV protease cleavage site between E109 and G110, protein SEQ ID NO:31 (protein)
chain: MLLRSKPALPPPLMLLLLGPLGPLSPGALPRPAQAQDVVDLDFFTQEPLHLVSPSFLSVTIDANLATDPRFLILLGSPKLRTLARGLSPAYLRFGGTKTDFLIFDPKKEGSGSENLYFQGSGSTFEERSYWQSQVNQDICKYGSIPPDVEEKLRLEWPYQEQLLLREHYQKKFKNSTYSRSSVDVLYTFANCSGLDLIFGLNALLRTADLQWNSSNAQLLLDYCSSKGYNISWELGNEPNSFLKKADIFINGSQLGEDFIQLHKLLRKSTFKNAKLYGPDVGQPRRKTAKMLKSFLKAGGEVIDSVTWHHYYLNGRTATREDFLNPDVLDIFISSVQKVFQVVESTRPGKKVWLGETSSAYGGGAPLLSDTFAAGFMWLDKLGLSARMGIEVVMRQVFFGAGNYHLVDENFDPLPDYWLSLLFKKLVGTKVLMASVQGSKRRKLRVYLHCTNTDNPRYKEGDLTLYAINLHNVTKYLRLPYPFSNKQVDKYLLRPLGPHGLLSKSVQLNGLTLKMVDDQTLPPLMEKPLRPGSSLGLPAFSYSFFVIRNAKVAACI
modifications: hep TEV110
- activation of heparanase by TEV protease treatment [6]: not sufficient for eliciting activation

B3: 109/110+157/158: heparanase with TEV cleavage sites between E109/G110 and Q157/K158, SEQ ID NOs:29 and 32 (protein)
chain: T5 chain
- activation of heparanase by TEV protease treatment [6]: activated

B4: 50 kDa protein: mature 50 kDa human heparanase fragment, SEQ ID NO:16 (protein)
chain: T1 sequence (Q9Y251 158-543 limits assumed) with K150R
modifications: Human
- activity if expressed as such in mammalian cells ([7]; Hulett et al. 1999): inactive
- specific activity relative to the unprocessed 65 kDa precursor ([7]; Vlodavsky et al. 1999): at least 100 fold

— patent publication US20070009989A1, “Synthetic heparanase molecules and uses thereof” (priority 2003, published 2007)
